The source of these data is patent US20200230201A1 (CITY OF HOPE, published 2020).

This assay has as its target RELA (wild type) (UniProt Q04206 1-551). Nature of the assay: cell-based or functional assay.

Substitutions are numbered along the chain they refer to. Names may count otherwise.

Chain of RELA (wild type) (Q04206 whole entry): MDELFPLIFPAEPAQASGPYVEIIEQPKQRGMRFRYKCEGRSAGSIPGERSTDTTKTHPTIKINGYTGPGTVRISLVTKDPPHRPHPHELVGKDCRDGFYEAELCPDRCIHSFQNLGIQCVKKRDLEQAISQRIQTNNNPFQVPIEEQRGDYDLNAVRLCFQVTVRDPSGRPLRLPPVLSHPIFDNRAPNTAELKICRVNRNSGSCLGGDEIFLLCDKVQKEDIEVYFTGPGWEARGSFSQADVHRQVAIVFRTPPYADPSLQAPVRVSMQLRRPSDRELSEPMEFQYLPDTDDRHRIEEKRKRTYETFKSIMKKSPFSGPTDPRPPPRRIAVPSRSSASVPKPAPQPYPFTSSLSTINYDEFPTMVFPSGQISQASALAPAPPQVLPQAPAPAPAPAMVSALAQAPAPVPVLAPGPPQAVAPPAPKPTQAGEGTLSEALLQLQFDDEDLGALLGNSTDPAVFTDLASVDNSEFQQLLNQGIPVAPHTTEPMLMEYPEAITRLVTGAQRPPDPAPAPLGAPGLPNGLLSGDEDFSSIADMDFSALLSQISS

B1: TWIST1 (wild type, Myc-His tagged) (other, not shown: small tags and cut ends)
chain: MMQDVSSSPVSPADDSLSNSEEEPDRQQPPSGKRGGRKRRSSRRSAGGGAGPGGAAGGGVGGGDEPGSPAQGKRGKKSAGCGGGGGAGGGGGSSSGGGSPQSYEELQTQRVMANVRERQRTQSLNEAFAALRKIIPTLPSDKLSKIQTLKLAARYIDFLYQVLQSDELDSKMASCSYVAHERLSYAFSVWRMEGAWSMSASH
As to B1, the “IL-8 promoter driven firefly luciferase (FFluc), dual luciferase assay, Ovcar4 cells” value was roughly 2 fold.

B2: TWIST1 W190A (other, not shown: small tags and cut ends)
chain: B1 chain with W190A
For B2, the “decrease in IL-8 promoter driven firefly luciferase (FFluc), dual luciferase assay, Ovcar4 cells” value (from here on “decrease”) is roughly 50%.

B3: TWIST1 R191A (other, not shown: small tags and cut ends)
chain: B1 chain with R191A
For the molecule B3, the “decrease” value was roughly 50%.

B4: TWIST1 E193A (other, not shown: small tags and cut ends)
chain: B1 chain with E193A
B4: the “decrease” value is roughly 50%.
